The subject of one experiment is MAB01 heavy chain. As to the kind of experiment: Antibody degradation by Pichia-expressed T. reesei proteases (MAB01). Format: biochemical. The procedure:
The T. reesei aspartic proteases pep3 (tre121133) and pep7 (tre58669) expressed from Pichia were also tested in vitro, by measuring the degradation of the MAB01 antibody and IGF-1. Degradation of MAB01 and IGF-1 by pep3 and pep7 was analyzed by immunoblotting. The aspartic proteases were produced in Pichia supernatants. Pichia supernatants were diluted to 1× concentration, and then mixed with 50 mM sodium citrate buffer, pH 5.5. MAB01 was added to each reaction so that the final concentration would be 0.05 μg IGF-1 was added to each reaction so that the final concentration would be 0.30 μg μl. Ten microliters of each reaction mixture was then sampled and added to 3 μl of Laemmli sample buffer with β-mercaptoethanol. The samples were heated at 95° C. for 5 minutes before being loaded into a 4-15% PAGE gel (BioRad mini-protean TGX precast gel) along with an all blue precision plus prestained molecular weight marker (BioRad). The PAGE gel was run for 30 minutes at 200V. The proteins in the gel were then electrotransferred into a nitrocellulose filter at 100V for 1 hour. The protein containing nitrocellulose filter was then blocked with 5% milk powder in Tris buffered saline with 0.1% tween (TBST) for 1 hour shaking at room temperature. The blocked membranes were then probed with antibody. The MAB01 containing membranes were probed with an anti-IgG heavy chain antibody AP conjugate (Sigma #A3188) diluted 1:30,000 in TBST. The IGF-1 samples were analyzed using a primary anti-IGF-1 antibody (1:2000 in TBST) and anti-IgG AP conjugated secondary antibody (1:5000 in TBST). All antibody incubations were done for 1 hour at room temperature on a shaker. The membranes were then washed with 3 changes of TBST for 20 minutes each on the shaker. The membranes were developed with the BCIP/NBT alkaline phosphatase substrate (Promega #S3771) for up to 5 minutes.
Pichia supernatants containing Trichoderma reesei gap2 were also studied in vitro. The gap2 containing supernatant and MAB01 antibody were diluted into sodium citrate buffers adjusted to pH 4.0, 4.5, 5.0, and 5.5, and incubated for 20 hours at 37° C. Samples were taken at 0 minutes and after 20 hours. MAB01 heavy chain production was analyzed by immunoblotting using an anti-IgG heavy chain (Sigma #A3188) antibody AP conjugate.
(§1) The Trichoderma reesei subtilisin proteases slp5, slp6, and slp7 were overproduced in Pichia supernatants for investigation of their activity against the antibody rituximab and MAB01 heavy chains (FIG. 25). The rituximan mock supernatant was compared to supernatants containing slp5 and slp6 (FIG. 25 A). The MAB01 mock supernatant was compared to supernatants containing slp7 (FIG. 25B). Rituximab and MAB01 were added to the protease-containing Pichia supernatants and incubated overnight at 37° C. Samples were taken and analyzed by immunoblotting with an anti-heavy chain AP conjugated antibody.

The next experiment concerns rituximab heavy chain. As to the kind of experiment: Antibody degradation by Pichia-expressed T. reesei proteases (rituximab). The class given is biochemical. The note with it: overnight 37°C. The procedure:
as §1

[1] abbreviates: pH 5.5, 37°C, overnight/20 hours.

B1: pep3: T. reesei aspartic protease tre121133 expressed from Pichia (protein, listed as Trichoderma reesei)
chain: MEAILQAQAKFRLDRGLQKITAVRNKNYKRHGPKSYVYLLNRFGFEPTKPGPYFQQHRIHQRGLAHPDFKAAVGGRVTRQKVLAKKVKEDGTVDAGGSKTGEVDAEDQQNDSEYLCEVTIGTPGQKLMLDFDTGSSDLWVFSTELSKHLQENHAIFDPKKSSTFKPLKDQTWQISYGDGSSASGTCGSDTVTLGGLSIKNQTIELASKLAPQFAQGTGDGLLGLAWPQINTVQTDGRPTPANTPVANMIQQDDIPSDAQLFTAAFYSERDENAESFYTFGYIDQDLVSASGQEIAWTDVDNSQGFWMFPSTKTTINGKDISQEGNTAIADTGTTLALVSDEVCEALYKAIPGAKYDDNQQGYVFPINTDASSLPELKVSVGNTQFVIQPEDLAFAPADDSNWYGGVQSRGSNPFDILGDVFLKSVYAIFDQGNQRFGAVPKIQAKQNLQPPQ
Take B1: the MAB01 degrading activity entry with MAB01 heavy chain (pH 4.5, 37°C, overnight) was “higher”; with MAB01 heavy chain (setting [1]) it was “low MAB01 degrading activity”.

B2: pep7: T. reesei aspartic protease tre58669 expressed from Pichia (protein, listed as Trichoderma reesei)
chain: MTLPVPLREHDLPFLKEKRKLPADDIPSGTYTLPIIHARRPKLASRAIEVQVENRSDVSYYAQLNIGTPPQTVYAQIDTGSFELWVNPNCSNVQSADQRFCRAIGFYDPSSSSTADVTSQSARLRYGIGSADVTYVHDTISLPGSGSGSKAMKAVQFGVADTSVDEFSGILGLGAGNGINTEYPNFVDELAAQGVTATKAFSLALGSKAEEEGVIIFGGVDTAKFHGELAHLPIVPADDSPDGVARYWVKMKSISLTPPPPSSSGSTDDNNNKPVAFPQTSMTVFLDSGSTLTLLPPALVRQIASALGSTQTDESGFFVVDCALASQDGTIDFEFDGVTIRVPYAEMIRQVSTLPPHCYLGMMGSTQFALLGDTFLRSAYAVFDLTSNVVHLAPYANCGTNVKSITSTSSLSNLVGTCNDPSKPSSSPSPSQTPSASPSSTATQKA
With B2, the MAB01 degrading activity entry in the experiment with MAB01 heavy chain (pH 4.5, 37°C, overnight) is “minimal antibody degrading activity”.

B3: slp6: T. reesei subtilisin protease overproduced in Pichia supernatant (protein, listed as Trichoderma reesei)
chain: MASLRRLALYLGALLPAVLAAPAVNYKLPEAVPNKFIVTLKDGASVDTDSHLTWVKDLHRRSLGKRSTAGVEKTYNIDSWNAYAGEFDEETVKQIKANPDVASVEPDYIMWLSDIVEDKRALTTQTGAPWGLGTVSHRTPGSTSYIYDTSAGSGTFAYVVDSGINIAHQQFGGRASLGYNAAGGDHVDTLGHGTHVSGTIGGSTYGVAKQASLISVKVFQGNSASTSVILDGYNWAVNDIVSRNRASKSAINMSLGGPASSTWATAINAAFNKGVLTIVAAGNGDALGNPQPVSSTSPANVPNAITVAALDINWRTASFTNYGAGVDVFAPGVNILSSWIGSNTATNTISGTSMATPHVVGLALYLQALEGLSTPTAVTNRIKALATTGRVTGSLNGSPNTLIFNGNSA
For the molecule B3, the “degradation of MAB01 heavy chain vs mock supernatant” value in the experiment with MAB01 heavy chain (Pichia supernatant, overnight 37°C) is given as “light degradation”. Further, the “degradation of rituximab heavy chain vs mock supernatant” value in the experiment with rituximab heavy chain is reported as “heavy degradation activity”.

B4: gap2: T. reesei glutamic protease tre106661 in Pichia supernatant (protein, listed as Trichoderma reesei)
chain: MDAIRARSAARRSNRFQAGSSKNVNGTADVESTNWAGAAITTSGVTEVSGTFTVPRPSVPAGGSSREEYCGAAWVGIDGYSDADLIQTGVLWCVEDGEYLYEAWYEYLPAALVEYSGISVTAGSVVTVTATKTGTNSGVTTLTSGGKTVSHTFSRQNSPLPGTSAEWIVEDFTSGSSLVPFADFGSVTFTGATAVVNGATVTAGGDSPVIIDLEDSRGDILTSTTVSGSTVTVEYE
As for B4, in the experiment with MAB01 heavy chain (pH 4.0, 37°C, 20 hours), the “proteolytic activity against heavy chain MAB01” value was “maximal proteolytic activity”. Also, in the experiment on MAB01 heavy chain (setting [1]), the MAB01 degrading activity entry was “low”.

The values above are taken from patent US11180767B2, “Protease deficient filamentous fungal cells and methods of use thereof” (GLYKOS FINLAND OY, priority 2012, dated 2021).
